# According to patent publication EP1891228B1 (Janssen Pharmaceutica NV, dated 2016):
# Biological target: HDAC1-flag (Homo sapiens (Human), UniProt Q13547 1-482)
# Test: cell-based or functional assay
# Chain of HDAC1-flag (Q13547 whole entry, form in doubt): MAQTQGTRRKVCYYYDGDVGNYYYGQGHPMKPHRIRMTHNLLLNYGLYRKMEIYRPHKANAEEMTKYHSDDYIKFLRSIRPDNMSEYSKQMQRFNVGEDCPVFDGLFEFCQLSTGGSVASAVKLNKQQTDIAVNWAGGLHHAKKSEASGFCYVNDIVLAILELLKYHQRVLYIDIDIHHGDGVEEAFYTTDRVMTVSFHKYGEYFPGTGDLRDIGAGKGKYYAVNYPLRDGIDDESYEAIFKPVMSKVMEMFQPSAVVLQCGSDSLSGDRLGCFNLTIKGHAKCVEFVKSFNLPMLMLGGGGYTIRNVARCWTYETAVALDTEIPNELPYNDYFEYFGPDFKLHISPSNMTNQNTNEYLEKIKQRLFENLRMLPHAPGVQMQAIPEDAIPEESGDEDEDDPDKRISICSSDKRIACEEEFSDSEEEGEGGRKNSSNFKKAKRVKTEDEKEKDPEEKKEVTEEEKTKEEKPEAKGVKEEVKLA
binder,measurement,value
"V5-APPL (full length APPL) (other, not shown: small tags and cut ends) MPGIDKLPIEETLEDSPQTRSLLGVFEEDATAISNYMNQLYQAMHRIYDAQNELSAATHLTSKLLKEYEKQRFPLGGDDEVMSSTLQQFSKVIDELSSCHAVLSTQLADAMMFPITQFKERDLKEILTLKEVFQIASNDHDAAINRYSRLSKKRENDKVKYEVTEDVYTSRKKQHQTMMHYFCALNTLQYKKKIALLEPLLGYMQAQISFFKMGSENLNEQLEEFLANIGTSVQNVRREMDSDIETMQQTIEDLEVASDPLYVPDPDPTKFPVNRNLTRKAGYLNARNKTGLVSSTWDRQFYFTQGGNLMSQARGDVAGGLAMDIDNCSVMAVDCEDRRYCFQITSFDGKKSSILQAESKKDHEEWICTINNISKQIYLSENPEETAARVNQSALEAVTPSPSFQQRHESLRPAAGQSRPPTARTSSSGSLGSESTNLAALSLDSLVAPDTPIQFDIISPVCEDQPGQAKAFGQGGRRTNPFGESGGSTKSETEDSILHQLFIVRFLGSMEVKSDDHPDVVYETMRQILAARAIHNIFRMTESHLLVTCDCLKLIDPQTQVTRLTFPLPCVVLYATHQENKRLFGFVLRTSSGRSESNLSSVCYIFESNNEGEKICDSVGLAKQIALHAELDRRASEKQKEIERVKEKQQKELNKQKQIEKDLEEQSRLIAASSRPNQASSEGQFVVLSSSQSEESDLGEGGKKRESEA",HDAC1 activity: release of acetic acid from a [3H]acetyl-labeled Histone H4 peptide by immunoprecipitated HDAC1,~4 fold
